Experimental data published in PMC5675595.

B1: FLAG-tagged IRAK2 WT [mouse] / ALYREF [human (endogenous in IL1R-293 and HeLa)] (parent)
chain 1: MACYIYQLPSWVLDDLCRNIDTLSEWDWMQFASYVITDLTQLRKIKSMERVQGVSITRELLWWWSMRQATVQQLVDLLCHLELYRAAQIVLSWKPVPESTSPLPAFPEAVKPGAVATSRRNLKDEQEKVRPVKPRSLLDTGPIMAGAQRQRPCEMDAPCSLKTDAPDSPQSKYCSTSTSAPKQERLLGLPGDRLFWSEADVVQATEDFDQSHRISEGTFADIYQGQRNGVAFAFKKLREVAGSSPGSMDRFLQAEMQLCLRCCHANVLPLLGFCTGRQFHSLIYPYMANGSLHDRLWAQGNSDMLPWPQRASICSGLLLAVEHLHSLDIIHSNVKSANVLLDQHLNPKLAHPVAHPHPDNKKTKYTVMRTHLFQASAAYLPEHFIRVGQLTKQVDIFSCGIVLAEVLTGIPAMDKDRSPVYLKDLLLSEIPNSTSSVCSRKTSMGKAVVKEICQRHVEKRAGLLPEACEEAWATAVSVCLRRRNASVEEARVSLAGVEEQLRGQLSLPWSRVSEATGSSSNTPEETDDVDNSSLSVPSLVMMASCPGAASSPLFTGHGAAQPSTSGRQEADSSSEACTGPQTPQNATETSWKIEINEAKRRLMENIVLYKEERLDSSELFGP
chain 2: not shown

Variants of: B1
Assay: proximity ligation assay (PLA)
Conditions: with ALYREF [human (endogenous in IL1R-293 and HeLa)]; Hela cells transfected; Mouse anti-ALYREF and Rabbit anti-FLAG antibody; read off a plot

| response (% PLA positive cells) | Variant |
| --- | --- |
| 0.45 | chain 1 K123R K182R K592R |
| 0.6 | chain 1 K361A K362A K364A |
| 0.2 | chain 1 K235A K236A |
